From IntAct's records for PubMed 15105431

B1: T-cell surface antigen CD2 (Homo sapiens), P06729 (parent)
chain: MSFPCKFVASFLLIFNVSSKGAVSKEITNALETWGALGQDINLDIPSFQMSDDIDDIKWEKTSDKKKIAQFRKEKETFKEKDTYKLFKNGTLKIKHLKTDDQDIYKVSIYDTKGKNVLEKIFDLKIQERVSKPKISWTCINTTLTCEVMNGTDPELNLYQDGKHLKLSQRVITHKWTTSLSAKFKCTAGNKVSKESSVEPVSCPEKGLDIYLIIGICGGGSLLMVFVALLVFYITKRKKQRSRRNDEELETRAHRVATEERGRKPHQIPASTPQNPATSQHPPPPPGHRSQAPSHRPPPPGHRVQHQPQKRPPAPSGTQVHQQKGPPLPRPRVQPKPPHGAAENSLSPSSN
partner: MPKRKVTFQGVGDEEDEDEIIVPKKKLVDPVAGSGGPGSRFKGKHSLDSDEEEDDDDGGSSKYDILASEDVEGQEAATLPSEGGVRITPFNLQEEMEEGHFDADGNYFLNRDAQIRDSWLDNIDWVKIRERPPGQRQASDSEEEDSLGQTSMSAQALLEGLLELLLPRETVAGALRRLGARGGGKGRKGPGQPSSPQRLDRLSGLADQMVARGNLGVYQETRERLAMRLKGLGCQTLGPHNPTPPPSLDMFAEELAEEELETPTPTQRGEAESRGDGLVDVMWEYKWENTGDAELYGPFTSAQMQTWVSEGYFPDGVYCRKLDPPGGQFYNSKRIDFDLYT

Variants of: B1
Conditions: with cd2b2_human CD2BP2, O95400

Effect of a mutation on the interaction: each site, then its substitutions
S294: D decreasing interaction strength | E decreasing interaction strength
H295: E decreasing interaction strength | D decreasing interaction strength
P299: F decreasing interaction strength | R disrupting interaction strength | D disrupting interaction strength | I decreasing interaction strength | L disrupting interaction strength | T disrupting interaction strength | N decreasing interaction strength | V disrupting interaction strength | H decreasing interaction strength | K decreasing interaction strength | C decreasing interaction strength | Q disrupting interaction strength | Y disrupting interaction strength | A disrupting interaction strength | E disrupting interaction strength
G301: M disrupting interaction strength | P decreasing interaction strength | Q decreasing interaction strength | N decreasing interaction strength | I decreasing interaction strength | H decreasing interaction strength | F decreasing interaction strength | Y decreasing interaction strength | K decreasing interaction strength | A disrupting interaction strength | V disrupting interaction strength | S decreasing interaction strength | T disrupting interaction strength
V304: E decreasing interaction strength | C decreasing interaction strength | W decreasing interaction strength | D decreasing interaction strength
P298: H decreasing interaction strength | M disrupting interaction strength | D disrupting interaction strength | E disrupting interaction strength | N disrupting interaction strength
R296: C decreasing interaction strength | L decreasing interaction strength | E disrupting interaction strength | D disrupting interaction strength | M decreasing interaction strength | A decreasing interaction strength
P300: Y decreasing interaction strength | R decreasing interaction strength | L decreasing interaction strength | I decreasing interaction strength | F decreasing interaction strength | E disrupting interaction strength | T disrupting interaction strength | N decreasing interaction strength | Q decreasing interaction strength | V disrupting interaction strength | H decreasing interaction strength | S disrupting interaction strength | D disrupting interaction strength | K decreasing interaction strength | M decreasing interaction strength | W decreasing interaction strength | C decreasing interaction strength | A disrupting interaction strength
H302: D decreasing interaction strength | E decreasing interaction strength
R303: P decreasing interaction strength | C disrupting interaction strength | I decreasing interaction strength | F decreasing interaction strength | S disrupting interaction strength | V disrupting interaction strength | A disrupting interaction strength | E disrupting interaction strength | M decreasing interaction strength | N decreasing interaction strength | W disrupting interaction strength | T disrupting interaction strength | H decreasing interaction strength | G disrupting interaction strength | L decreasing interaction strength | Y disrupting interaction strength | Q decreasing interaction strength | D disrupting interaction strength
